From paper PMC3907030, “Using phage display selected antibodies to dissect microbiomes for complete de novo genome sequencing of low abundance microbes” (BMC Microbiology, 2013)
Numbering of substitutions follows the chain as printed. Blank lines part the entries; values can stand above or below the binder they belong to.

Legend:
Details in all cases: partners not purified
[1] = molecular target: T1, L. acidophilus S-layer A protein (SlpA), on L. acidophilus ATCC 832 cells (Lactobacillus acidophilus ATCC 832; …, UniProt P35829); experiment: flow cytometry on cells; scFv culture supernatant (200 μl, unpurified) incubated with 10^6-10^7 washed bacteria in PBS, 1 h at RT; detected with anti-SV5-PE; BD LSRII
T1 construct: the flow cytometry was done on whole bacteria; also called L. acidophilus st; source: endogenous, on intact L. acidophilus ATCC 832 cells

[2] = molecular target: T2, L. acidophilus S-layer A protein (SlpA), on L. acidophilus ATCC 4356 cells (Lactobacillus acidophilus ATCC 4356, UniProt P35829); experiment: as above
T2 construct: the flow cytometry itself was done on whole bacteria; also called S-layer protein A; Surface layer protein A; source: endogenous, on intact L. acidophilus ATCC 4356 cells

[3] = molecular target: T3, L. acidophilus S-layer A protein (Lactobacillus acidophilus (ATCC 4356; …, UniProt P35829); experiment: flow cytometry on cells; 200 μl scFv culture supernatant added to 10^6-10^7 washed bacteria in PBS, 1 h at RT; detected with anti-SV5-PE; BD LSRII
T3 construct: S-layer A protein (SlpA) of Lactobacillus acidophilus, Uniprot P35829; band of ~45 kDa; On the bacterial surface in flow cytometry; denatured (SDS, β-mercaptoethanol, boiled) on the blot; The MS search used an L. acidophilus NCFM database; also called SlpA; S-layer protein A
T3 sequence (P35829 25-444): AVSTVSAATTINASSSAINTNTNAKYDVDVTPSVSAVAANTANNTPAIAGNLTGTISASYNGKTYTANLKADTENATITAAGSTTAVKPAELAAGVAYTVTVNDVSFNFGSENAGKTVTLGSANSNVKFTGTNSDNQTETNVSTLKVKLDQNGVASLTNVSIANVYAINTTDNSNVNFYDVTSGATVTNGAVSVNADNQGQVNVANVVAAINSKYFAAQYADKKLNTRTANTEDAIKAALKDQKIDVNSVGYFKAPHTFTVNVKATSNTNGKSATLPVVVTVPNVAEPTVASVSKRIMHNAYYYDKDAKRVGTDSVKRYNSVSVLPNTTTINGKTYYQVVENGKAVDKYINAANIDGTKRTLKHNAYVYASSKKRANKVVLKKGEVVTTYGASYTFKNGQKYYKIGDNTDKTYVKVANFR

T2 sequence (P35829 25-444): as above
T1 sequence (P35829 25-444): as above

B1: α-La3 scFv (scFv, V domains shown)
VH: QVQLQESGPGLVKPSETLSLTCAISGDSVSSNSAAWNWIRQSPSRGLEWLGRTYYRSKWYNDYAVSVKSRITINPDTSKNQFSLQLNSVTPEDTAVYYCATGDAFDMWGQGTMVTVSS
VL: SYVLTQPPSVSGTPGQRVTISCSGSSSNIERNYVYWYQQLPGTAPKLLIYRNNQRPSGVPDRFSGSKSGTSASLAISGLRSEDEADYYCAAWDDSQNAYVFGTGTKLTVL
notes: residues before the VL; VL of α-La3; linker between VL and VH; VH of α-La3; residues between the VH and the SV5 tag; Expressed from pEP-GFP11 with an N-terminal PelB leader and C-terminal SV5, 6x His and GFP strand 11 tags; limits of VL, linker and VH and the reading of GAHA and AS as vector-derived residues are my surmise; also called anti-La3; source: E. coli …
- binding result [1]: binds
- binding result [2]: binds

B5: α-La4 scFv (scFv, V domains shown)
VH: QVQLQQSGPGLVKPSQILSLTCAISGDSVSSNSADWNWIRQSPSRGLEWLGRTYYRSKWYNDYAVLVKSRITINPDTSKNQFSLQLNSVTPEDTAVYYCARGSLGAFDIWGQGTMVTVSS
VL: QAVVTQEPSASETPGQRVTISCSGSDSNIGSNYVYWYQQVPGTAPKLVIYRNNQRPSGVPDRFSGSKSGTSASLGIRGLQSEDEADYYCAAWDDSVSGWVFGGRTKLTVL
notes: residues before the VL; VL of α-La4; linker between VL and VH; VH of α-La4; residues between the VH and the SV5 tag; Expressed from pEP-GFP11 with an N-terminal PelB leader and C-terminal SV5, 6x His and GFP strand 11 tags; limits of VL, linker and VH and the reading of GAHA and AS as vector-derived residues are my surmise; also called anti-La4; source: E. coli …
- binding result [1]: binds
- binding result [2]: binds

B6: α-La2 scFv (scFv, V domains shown)
VH: EVQLVETGGGLVKPGGSLRLSCAASGFTLSNAWMHWVRQAPGKGLEWVGRIRRKTDGGTTDYAAPVKGRFTISRDDSKNTLYLQMNSLKTEDTAVYYCSTDDYGGNWGQGTLVTVSS
VL: QSVLTQPASVSGSPGQSITISCTGTSSDVGSYNYVSWYQQHPGKAPKLMIYDVSNRPSGVSNRFSGSKSGNTASLTISGLQAEDEADYYCSSYTSSSTNVFGTGTQLTVL
notes: residues before the VL; VL of α-La2; linker between VL and VH; VH of α-La2; residues between the VH and the SV5 tag; Expressed from pEP-GFP11 with an N-terminal PelB leader and C-terminal SV5, 6x His and GFP strand 11 tags; limits of VL, linker and VH and the reading of GAHA and AS as vector-derived residues are my surmise; also called anti-La2; source: E. coli …
- binding result [2]: binds

B7: α-La2 scFv (scFv, V domains shown)
VH: B6 VH
VL: B6 VL
notes: The vector adds an N-terminal PelB leader; also called anti-La2; source: E. coli BL21 Gold, pEP-GFP11, culture supernatant; not shown: SV5, C-terminal, kept
- binding result [3]: binds

Next, values leading:

- binding result [3]: binds
B2: α-La3 scFv (scFv, V domains shown)
VH: B1 VH
VL: B1 VL
notes: The vector adds an N-terminal PelB leader; source: E. coli BL21 Gold, pEP-GFP11, culture supernatant; not shown: SV5, C-terminal, kept

- binding result [1]: binds
- binding result [2]: binds
B3: α-La1 scFv (scFv, V domains shown)
VH: B5 VH with I17T, T21A, D35A, T53I, L66S, G102E, S103R, L104Y
VL: SYELTQPPSASGTPGQRVTISCSGSSSNIGSNYVYWYQQLPGTAPKLLIYRNNQRPSGVPDRFSGSKSGTSASLAITGLQAEDEADYYCQSYDSSLSGYVFGTRTKLTVL
notes: residues before the VL; VL of α-La1; linker between VL and VH; VH of α-La1; residues between the VH and the SV5 tag; Expressed from pEP-GFP11 with an N-terminal PelB leader and C-terminal SV5, 6x His and GFP strand 11 tags; limits of VL, linker and VH and the reading of GAHA and AS as vector-derived residues are my surmise; also called anti-La1; α-La scFv; source: …

- binding result [3]: binds
B4: α-La4 scFv (scFv, V domains shown)
VH: B5 VH
VL: B5 VL
notes: as for B2
